The record followed here is patent US20020022718A1, “Genes identified as required for proliferation of E. coli” (priority 1999, published 2002).

In this data set the test system is Klebsiella pneumoniae. Kind of data set: Growth inhibition by induced E. coli antisense RNA in Klebsiella pneumoniae. Details: key: +: a positive in Table V below means that at least 10 fold more cells were required to observe a colony on the induced plate than on the non-induced plate; −: If there was no effect of antisense RNA expression in a microorganism, the clone is minus in Table V below. In kind it is cell-based. To be noted: antisense RNA expression induced with IPTG, serial dilution plating. On the procedure:
To study the effects of transcriptional induction in liquid medium, growth curves were carried out by back diluting cultures 1:200 into fresh media with or without 1 mM IPTG and measuring the OD450 every 30 minutes (min). To study the effects of transcriptional induction on solid medium, 10^2, 10^3, 10^4, 10^5, 10^6, 10^7 and 10^8 fold dilutions of overnight cultures were prepared. Aliquots of from 0.5 to 3 μl of these dilutions were spotted on selective agar plates with or without 1 mM IPTG. After overnight incubation, the plates were compared to assess the sensitivity of the clones to IPTG.
Molecule No. EcXA190, encoding a portion of the b3052 gene of Escherichia coli, was either transformed directly into Enterobacter cloacae, Salmonella typhimurium and/or Klebsiella pneumoniae or subcloned into an expression vector functional in these species and the subclones transformed into these organisms. Suitable expression vectors are well known in the art. These expression vectors were introduced into Enterobacter cloacae, Salmonella typhimurium and/or Klebsiella pneumoniae cells that were then assayed for growth inhibition according to the method of Example 1. After growth in liquid culture, cells were plated at various serial dilutions and a score determined by calculating the log difference in growth for INDUCED vs. UNINDUCED antisense RNA expression as determined by the maximum 10 fold dilution at which a colony was observed. If there was no effect of antisense RNA expression in one organism, the clone is given a score of zero “0” in that organism. In contrast, a score of “8” means that 10^8 times more cells were required to observe a colony formed on the induced state than in the non-induced state under the conditions used and in that organism.
In addition, the above methods were validated using other antisense nucleic acids which inhibit the growth of E. coli which were identified using methods similar to those described above. Expression vectors which inhibited growth of E. coli upon induction of antisense RNA expression with IPTG were transformed directly into Enterobacter cloacae, Klebsiella pneumonia or Salmonella typhimurium. The transformed cells were then assayed for growth inhibition according to the method of Example 1. After growth in liquid culture, cells were plated at various serial dilutions and a score determined by calculating the log difference in growth for INDUCED vs. UNINDUCED antisense RNA expression as determined by the maximum 10 fold dilution at which a colony was observed. If there was no effect of antisense RNA expression in a microorganism, the clone is minus in Table V below. In contrast, a positive in Table V below means that at least 10 fold more cells were required to observe a colony on the induced plate than on the non-induced plate under the conditions used and in that microorganism.

B1: EcXA137: antisense clone insert to E. coli proA, thrW (nucleic acid, listed as Escherichia coli)
antisense: CTTTTTACGGACAAACAATCATGCAACCAGAAGTTGAAGTATTAACCGATCATAATGAGCTAATTTGTTCGAGCTTTATTGAACACATTGCCAACACATTAAATTTAGGAGTGGTGTACAACTAAACCTGCAGCCAAGGATGTATAGTGAGCGAAGCCCTATCAGGCCTTTTTGGTCAGTAGATAAGATTGATCTTCGTTGATAGAATTTACTTACACCAGCTGTTACATTAAGATAATTTTTTGGTGGGAGAATGATAAGATCTTACGTAACAATTTGATTTTAATGGTGCCGATAATAGGAGTCGAACCTACGACCTTCGCATTACGAATGCGCTGCTCTACCAACTGAGCTATATCGGCCCTGAAAGGACATGTTCACGAACGTGAATCACGGTGGACAAGGTTAAAACTAACCGGGCGATGCGTCAATGGCCTTGTGAATCAAATGGCTACTTTTGCATCACCCGGTTTTATTTACGCACGAATGGTGTAATCACCAATGCCGATCCACTTGTAAGTGGTCAAGTGCTTNCAGCCCCATTGGGCCACGCGCCGTGGAGTTTTTGTGTGCTTACCGGCACTTTCGCACCCAGACCAAACTGGCCGCCGTCGGTAAAACGCGTAGAGGCGTTACGTAAACAGCGGACGAATCCACTTCGTNACAAAACGCTTGGCGTTGGCATATCGCGGGTCANGATCGCAATCGGAGTGTTGTGTGCCCGGGTTN
modifications: misc_feature (1)...(729): n = A,T,C or G
notes: antisense clone insert to E. coli proA, thrW
As to B1, the “Sensitivity of K. pneumoniae to antisense nucleic acid (growth inhibition, induced vs. uninduced)” value is on record as “−”.

B2: EcXA123: antisense clone insert to E. coli yheL (nucleic acid, listed as Escherichia coli)
antisense: CTGGTTTTAGCTTTTGCTTCGTAAACACGTAATAAAACGTCCTCACACAATATGAGGACGCCGAATTTTAGGGCGATGCCGAAAAGGTGTCAAGAAATATACAACGATCCCGCCATCACCAGGCCATCTGGCTGGGG
In the case of B2, the “Sensitivity of K. pneumoniae to antisense nucleic acid (growth inhibition, induced vs. uninduced)” value is “−”.

B3: EcXA139: antisense clone insert to E. coli b0874 (nucleic acid, listed as Escherichia coli)
antisense: AGGTTACTGGCGAGGTTATCGAGAAACGCCAGACTGATACCCATAAAAAAGAGAATAAGGTAAACCATCCAGCTTAATAGCTGATTAATAACTTTTAACGCAGCTTGTTGGCGAAGCGGAATGAGGTAACCCACAATCAGGGGAACCAGAATGATTAACAGCCCAGAAAACATGAAAACCCAGTCCTTGCAAAGATGAAGTCGAAATGCGCGATGACACACTACTGAAAGCGGAAGGACGAGTAAAGTTGCAATTAAAAGGAAATGTTATGCATAAGGAGCAGTAGAGTATTCGTTTTCATTTAAAGATATTCTTGCGCTTTAATTACAAACTGCACCGATGTTGGTGGCGTCAAAATCGCCGAGGCGTTCCCTGAAGGCCGGGGCAGCCCACATGGATGTGGGCTGAGGGCGCGTTTTACAGGG
Regarding B3, the “Sensitivity of K. pneumoniae to antisense nucleic acid (growth inhibition, induced vs. uninduced)” value is “−”.

B4: EcXA132: antisense clone insert to E. coli narV (nucleic acid, listed as Escherichia coli)
antisense: GGAGAGCGAAGGGCTATCCGGCCAGGGTGAAATTATCGCCGCGAACGCACAATTTGATATCGACGAGTAAAGTACTCAAACGGCGCGCTCCACACATGCACCAGTCGGGTGAACGGGAAGAGCAGGAAGATGGTCATTCCCAACACCAGATGCAGGCGGAAGACGAACGCTACGCCGTTGAGCATCTCTGACGATCCACCACGGAAAGTGA
B4: the “Sensitivity of K. pneumoniae to antisense nucleic acid (growth inhibition, induced vs. uninduced)” value is recorded as “−”.

B5: EcXA121: antisense clone insert to E. coli yjfQ (nucleic acid, listed as Escherichia coli)
antisense: TGATCGATCAGGTAATTTGCCAGCGGTAGATAATTAGTGATGATTTGCACTGGCTTGCCACACATTTCCCGCCCAAGCAGAAACGCGGTGGAGCCGCAGTTGATGACTACGCTTTCGCCCGGATTAACCAGCTGCGAGGCCGCTTTAGCGATACGTACTTTTTCATCGTGATTCTGCGCCTGATGCAGATTCATCGGCGTCCAGCGCGGGCGCTGTTGGGTAATAGCTTCTGCGCCATTGCGCACTTTTTTCAGTTTGCCGCTTTCGTCAAGTTTATTGA
B5: the “Sensitivity of K. pneumoniae to antisense nucleic acid (growth inhibition, induced vs. uninduced)” value was “−”.

B6: EcXA128: antisense clone insert to E. coli nagE (nucleic acid, listed as Escherichia coli)
antisense: CGCTGGAAAAAACCTAAAATATTCATCTTATTCCCCCTACGAGAACCCTATTTGGCTCGTTTCAAGCCGTATTTTTATTTTGCTGCAAATTGTACTGCCGATGTTCTGTAATCAGATTGTTAGATCATCTGCTACAGAGTGTGTGAAAATTTAATTCGTATCGCAAATTAAACGCGTGTCTTTTGTGAGTTTTGTCACCAAATATCGTTATTATCACTCCCTTTTACTGGCTAAACCAGAAAACTTATTT
Take B6: the “Sensitivity of K. pneumoniae to antisense nucleic acid (growth inhibition, induced vs. uninduced)” value was “−”.

B7: EcXA126: antisense clone insert to E. coli yicC (nucleic acid, listed as Escherichia coli)
antisense: CGATGTTCTGAATCTGCTCGCGCATCTGCTCAATCAACACTTTCAGCTCGATGGCGGAGTTTGTCACTTCGGCATTGATAGACTTCGACGCAAGAGTGTTCGACTCGCGGTTGA
Consider B7, for which the “Sensitivity of K. pneumoniae to antisense nucleic acid (growth inhibition, induced vs. uninduced)” value was “−”.

B8: EcXA138: antisense clone insert to E. coli yhaC (nucleic acid, listed as Escherichia coli)
antisense: AGCCATTGTCCGGAGAATTTTCGTCTTTCTCGAGGGTATTATCTGAAAGTAACTCTTCTGAGCTAGAGTCTTCTATGTTTAAATCCATAGTATAATTAATTTGGGGGACGACCAGATAAGCATTTTCTTTGGTATTTTCATAATCTTCAATGATTATATCCGATGTAATCATATATTTTTTCTGATGAGAATTCTTTCATCTCTGTTAATTTAATTCTGTTCAAGCAATTGATGATTTTCGATGAGCTTTTATATATTTCTTTTGTTAATTCATTTTCTAATTTATCTGTAAGAGTTGCCCTTGG
Regarding B8, the “Sensitivity of K. pneumoniae to antisense nucleic acid (growth inhibition, induced vs. uninduced)” value was “−”.

B9: EcXA129: antisense clone insert to E. coli yadC, yadK (nucleic acid, listed as Escherichia coli)
antisense: GTATTACAACAAGAATACAGTGCTAAAAAAAGAATGTACCTGAAGATAGTCTTCATTTTTACTCCAATGTTTCTTTATTGTTATGGTTTGCGCTGTTTTTGTTTGTTATTCGTAGTAAATATCCACTAACACATGGCTCATAAGTTGACCAGATGTAACACTCAATGCAGGATCGATTTTTTGCATTCGGGTGCTAAATTTCCAGGATGAACCATTCATGTCATCCGACATTACTGG
As for B9, the “Sensitivity of K. pneumoniae to antisense nucleic acid (growth inhibition, induced vs. uninduced)” value is on record as “−”.

B10: EcXA130: antisense clone insert to E. coli atpE, atpB (nucleic acid, listed as Escherichia coli)
antisense: CATCATCACAGCGGCAGCCATGTACAGCAGATCCATATTCAGGTTTTCCATGACAGTCTCCAGTTTGTTTCAGTTAAAACGTAGTAGTGTTGGTAAATTAATGTTCTTCAGACGCCATCGACAGATAGACGATCGTCAGAACCATGAAGATGAAGGCTTGCAGCGTAATGATCAGGATGTGGAAAATGGCCCACGGCACATTCAGGATCCACTGTGACCACCACGGCAACAGACCAG
With B10, the “Sensitivity of K. pneumoniae to antisense nucleic acid (growth inhibition, induced vs. uninduced)” value is “−”.

B11: EcXA125: antisense clone insert to E. coli yiiL (nucleic acid, listed as Escherichia coli)
antisense: TGTCGGTAAACAATGACAATTTGAGACAGAGTGAAAGGTCAGATTTGCGGAGTAATGCACATAATGGTTATTTAAATAAACCACATGAATCATTAATGGGTTATTCATTATTTTTGTGATTTACTCACAATGTATCAGGGAAATATAACTTACCGGGAGATGTAATATGTTTAATTTTTCAAATCGAAATTTAAAATATTGTGCCGGAGGCATCTCTGGCACATTGGGCAATTACGGCA
For the molecule B11, the “Sensitivity of K. pneumoniae to antisense nucleic acid (growth inhibition, induced vs. uninduced)” value is reported as “−”.

B12: EcXA120: antisense clone insert to E. coli b1509 (nucleic acid, listed as Escherichia coli)
antisense: TCCGCGATCGCGGATAAAAAGGAGGATTTAAATAAGGCGTTGATGCGCCGTTTGAAGTCGGCAATATTAAGCCGCATGCCATCTCGACATGCGGCTTATACGGTTTACCAGCTATATTTCACTCCCAGCATGCCCTGAGTATCGCTATAGCCTTTATCACCTAGTTGCACACCGACATTCCCCCACAGGCTAAGGTTGTTATTTACTTTCGCCTCAACCCCGGTACGTACTTCACCGAGATTACGCGCACCTTCACGGCCTACGGTTTGACCATTCATCTTCACGGCGTAGACTTTGCTATTGTTGATCCAGTTCGCTTCAATGTAAGGCTGGAACTCACGCTGTTTACCATCGTCACGCTGGTGATGGCTGTTCAGGTAGGTTTTCACCCCAAG
For the molecule B12, the “Sensitivity of K. pneumoniae to antisense nucleic acid (growth inhibition, induced vs. uninduced)” value was “−”.
